Experiments:
[1] = target: PAL, light-oxygen-voltage (LOV) receptor from Nakamurella multipartita (Nakamurella multipartita); test: SEC
[2] = target: PAL, light-oxygen-voltage (LOV) receptor from Nakamurella multipartita (Nakamurella multipartita); test: SEC-MALS
[3] = target: isolated LOV domain of PAL (Nakamurella multipartita); test: SEC
[4] = target: isolated LOV domain of PAL (Nakamurella multipartita); test: SEC-MALS

stoichiometry N [1]	stoichiometry N [2]	stoichiometry N [3]	stoichiometry N [4]	Substance
2	2	–	–	PAL, light-oxygen-voltage (LOV) receptor from Nakamurella multipartita (natural protein)
–	–	2	2	isolated LOV domain of PAL (domain or fragment)
